Reference: patent US11957762B2, “Immune tolerant and non-immune tolerant elastin-like recombinant peptides and methods of use” (University of Utah Research Foundation, priority 2015, dated 2024)
Entries after “also recorded” stand apart in the source; their conditions may differ. Where two headings read alike, the source gives them in different places.

Columns and labels:
[1] = test system: regular 4T1-luc cells; experiment: Cytotoxicity, regular 4T1-luc cells; type: cell-based, murine
Protocol: (§1) Cytotoxicity studies. The cytotoxicity was measured as previously described (Zhao, et al; Mol. Pharm, 2014; 11(8):2703-12). The incubation time was 72 hours. 4T1-lu mammosphere cells were generated as the previously described (Zhao, et al; Mol. Pharm, 2014; 11(8):2703-12).

[2] = Tissue distribution of Sali-ABA in 4T1-luc tumored mice; conditions: mouse, in vivo, 24 h
Protocol: (§2) Pharmacokinetics and biodistribution study. Sali-ABA concentrations in blood and tissues were analyzed, and the concentrations were analyzed as previously described (Zhao, et al; Mol. Pharm, 2014; 11(8):2703-12).
The aforementioned slow clearance and particle size of iTEP-MPBH-ABA-Sali could enable the conjugate to leverage the EPR effect and, therefore, more efficiently accumulate in tumors. […] Tumors and all following organ samples were collected at 24 hours post administration. The quantities of Sali-ABA were expressed as percentage of initial dose normalized by weight of organs, ID %/gram. The data were analyzed by one-way ANOVA. P-value is shown in the figure and * indicates a significant difference. At the same time, there was a reduction of Sali-ABA accumulation in the heart when iTEP-MPBH-ABA-Sali NP was compared with free Sali, although the difference was not statistically significant (0.57±0.18 ID %/gram vs 0.86±0.11 ID %/gram, FIG. 11C). The data were analyzed by one-way ANOVA. The reduction may benefit the toxicity profile of the NP as the heart is an organ sensitive to Sali (Bastianello, et al., J S Afr Vet Assoc, 1996; 67(1):38-41). […] The data were analyzed by one-way ANOVA. P-values are shown in the figure and * indicates a significant difference.

[3] = In vitro Sali-ABA release assay; type: physicochemical; conditions: neutral pH (PBS), up to 100-hour monitoring
Protocol: In vitro Sali-ABA release assay. The release of Sali-ABA from iTEP-MPBH-ABA-Sali NP was measured after the NP was incubated in PBS (pH=7.4) or 0.1M sodium acetate/acetic acid buffer (pH=5) at 37° C. Multiple repeats of each mixture were kept in separate Eppendorf tubes and shaken at 100 rpms at 37° C. At predetermined time points, free Sali-ABA in one tube of sample was determined by HPLC based on a standard curve of Sali-ABA. The standard curve was established at 280 nm. The HPLC setup was the same as the described herein.
The relationship of the percentage of Sali-ABA release (F) with time (t) was fitted using the following equation and GraphPad V5.0. F%,released=100[…]

[4] = Pharmacokinetics (plasma Sali-ABA) after intravenous administration; design: species or system mice; conditions: mouse, in vivo
Protocol: as §2
Results. The pharmacokinetics of Sali-ABA and iTEP-MPBH-ABA-Sali were compared after they were administered intravenously to mice at a dose of 20 mg/Kg Sali-ABA equivalent. Plasma concentrations of Sali-ABA after the administration of either formulation were monitored for up to 24 hours (FIG. 11A). The temporal changes of the concentrations were fitted into a two-compartment pharmacokinetics model.

[5] = test system: mammosphere 4T1-luc cells; experiment: Cytotoxicity, mammosphere 4T1-luc cells (CSCs); type: cell-based, murine
Protocol: as §1

[6] = Hydrodynamic diameter by dynamic light scattering (DLS); type: physicochemical; conditions: 25 μM in PBS at 37° C.
Protocol: Characterization of the size of iTEPB-pOVA and iTEPB-iTEPA-pOVA fusions. The particle size distribution of the iTEP fusions was determined by dynamic light scattering (DLS) using a Zetasizer Nano-ZS instrument (Malvern Instruments, Malvern, UK) as previously described.^(29) The fusions were prepared at 5 μM and 25 μM in PBS and equilibrated at 37° C. for the measurement. The reported results represented the average particle size by number.
Dynamic light scattering (DLS) measurement. The measurement was carried out as previously described. iTEP, iTEP-MPBH-ABA-Sali conjugate, or PTX NP were measured at 25 μM in PBS at 37° C. using a Malvern Zetasizer Nano system (Malvern, Chester County, PA, USA).
Characterization of hydrodynamic diameters of iTEP-vaccine fusions. Hydrodynamic diameters of iTEP-vaccine fusions were determined by dynamic light scattering (DLS) using a Zetasizer Nano-ZS instrument (Malvern Instruments, Malvern, UK) as previously described (Zhao et al., Mol Pharm, 2014; 11(8):2703-12). The samples were resuspended at concentrations of 5, 25, 50, and 100 μM in PBS and sat at room temperature overnight before measurement. Some samples were kept in 5% C02 at 37° C. for 16 h before DLS measurement. Hydrodynamic diameter results of the sample of 5 μM concentration were reported because they were not affected by the used sample concentrations. Hydrodynamic diameters were presented using the size-by-number distribution approach. Z-average values and sizes-by-intensity data, however, were also reported.

[7] = test system: 4T1-luc orthotopic tumors; experiment: Tumor growth, metastasis and survival study; type: in vivo, Balb/c mice
Protocol: Tumor growth study. Balb/c mice were inoculated subcutaneously with 10^6 4T1-luc cells in 50 μL PBS at the #9 mammary glands. At the seventh day after inoculation when the volumes of all tumors reached or exceeded 100 mm^3, the mice were randomly assigned into groups as described in FIGS. 12 and 13. The dosing and dosing schedules are as following: • 1. PBS control (three day interval); Sali-ABA (20 mg/Kg BW, three-day interval), • 2. iTEP-MPBH-ABA-Sali NP (20 mg/Kg BW, three-day interval), • 3. PTX NP (10 mg/Kg BW, three-day interval), • 4. PTX NP and iTEP-MPBH-ABA-Sali combination, iTEP-MPBH-ABA-Sali NP on the first day (20 mg/Kg BW), PTX NP on the second day (10 mg/Kg BW), then two-day interval.
Seven total doses were administered intravenously. The length and width dimensions of tumors were measured with a caliper every other day. Tumor volumes were estimated using the formula: Tumor Volume=(length×width^2/2) (Zhang et al., Biomaterials, 2012; 33(2):679-91). Also, mouse body weight was recorded the same day when the tumor size was measured. The treatments of PTX NP and the combinational therapy were done after the results of the first three treatment groups were obtained.
Moreover, in order to monitor metastasis, bioluminescence signals released from 4T1-luc cells were monitored as previously described (Tao et al., BMC Cancer, 2008; 8(1):228). Specifically, experimental mice were injected intraperitoneally with 100 μl of D-luciferin (15 mg/ml) at predetermined time points (twice each week, 3-4 days interval). At 15 minutes after luciferin injection, the mice were imaged under anesthesia in a Xenogen IVIS 200 biophotonic imager (PerkinElmer, Inc., MA, USA). The bioluminescence intensity was denoted using photon emission from the subject or radiance in the unit of photons/sec/cm^2/sr (steradian). […] The overall survival time was counted as days between tumor inoculation and mouse sacrifice. Metastasis-free survival and overall survival were analyzed by the Kaplan-Meier method, and the median survival of each groups were compared using the Log-rank test with GraphPad V5.0.

Q: What does the source list for CC[C@@H](C(=O)[C@@H](C)[C@@H](O)[C@H](C)[C@@H]1O[C@@H]([C@@H](CC)C(=O)O)CC[C@@H]1C)[C@H]1O[C@]2(C=C[C@@H](O)[C@]3(CC[C@@](C)([C@H]4CC[C@](O)(CC)[C@H](C)O4)O3)O2)[C@H](C)C[C@@H]1C [Sali, Salinomycin, reference compound]?
A: IC50 ([1]; Mus musculus, 4T1-Luc, 72 h): 4.4 µM; Sali-ABA accumulation in the heart [2]: 0.86±0.11 ID %/gram

B1: iTEP-MPBH-ABA-Sali: conjugate of hydrophilic iTEP (SEQ ID NO: 58) with Sali-ABA-MPBH, self-assembled into a NP (conjugate)
chain: GGAGVPGGAGVPGGAGVPGGAGVPGGAGVPGGAGVPGGAGVPGGAGVPGGAGVPGGAGVPGGAGVPGGAGVPGGAGVPGGAGVPGGAGVPGGAGVPGGAGVPGGAGVPGGAGVPGGAGVPGGAGVPGGAGVPGGAGVPGGAGVPGGAGVPGGAGVPGGAGVPGGAGVPGGAGVPGGAGVPGGAGVPGGAGVPGGAGVPGGAGVPGGAGVPGGAGVPGGAGVPGGAGVPGGAGVPGGAGVPGGAGVPGGAGVPGGAGVPGGAGVPGGAGVPGGAGVPGGAGVPGGAGVPGGAGVPGGAGVPGGAGVPGGAGVPGGAGVPGGAGVPGGAGVPGGAGVPGGAGVPGGAGVPGGAGVPGGAGVPGGAGVPGGAGVPGGAGVPGGAGVPGGAGVPGGAGVPGGAGVPGGAGVPGGAGVPGGAGVPGGGVLPGVGGVLPGVGGVLPGVGGVLPGVGGVLPGVGGVLPGVGGVLPGVGGVLPGVGGVLPGVGGVLPGVGGVLPGVGGVLPGVGGVLPGVGGVLPGVGGVLPGVGGVLPGVGGVLPGVGGVLPGVGGVLPGVGGVLPGVGGVLPGVGGVLPGVGGVLPGVGGVLPGVGGVLPGVGGVLPGVGGVLPGVGGVLPGVGGVLPGVGGVLPGVGGVLPGVGGVLPGVGGVLPGVGGVLPGVGGVLPGVGGVLPGVGGVLPGVGGVLPGVGGVLPGVGGVLPGVGGVLPGVGGVLPGVGGVLPGVGGVLPGVGGVLPGVGGVLPGVGGVLPGVGGVLPGVGGVLPGVGGVLPGVGGVLPGVGGVLPGVGGVLPGVGGVLPGVGGVLPGVGGVLPGVGG
modifications: conjugated to Sali via ABA-MPBH linker
Q: With B1 as the molecule, how does the “release at the neutral pH” value [3] read?
A: Its value is “no detectable release”.

Q: And the “elimination half-life, times longer than free Sali-ABA administration” value [4]?
A: The value was 35 times.

Q: And the “times more toxic to mammosphere 4T1-luc cells (CSCs) than to regular 4T1-luc cells” value [5]?
A: Its value is “about eight”.

Q: What about the IC50 ([5]; mammosphere 4T1-luc cells, 72 hours) of the same molecule?
A: The IC50 was 5.8 µM.

Q: What about the “hydrodynamic diameter (DLS)” value [6] of the same molecule?
A: The value was 51.2±18.2 nm.

Q: What about the “cytotoxicity, times lower than Sali-ABA-MPBH alone” value ([1]; regular 4T1-luc cells) of the same molecule?
A: Its value is 2.6 times.

Q: What about the IC50 ([1]; regular 4T1-luc cells, 72 hours, read-out: IC50) of the same molecule?
A: The IC50 was 42.2 µM.

Q: And the median overall survival ([7]; days after tumor inoculation)?
A: Its median overall survival is 39 days.

Q: And the “development of metastasis in treated mice” value ([7]; mouse, in vivo, listed as iTEP-MPBH-ABA-Sali NP)?
A: Its value is “No mice in the NP-treated group developed metastasis; also recorded: zero metastasis”.

Q: What about the “inhibition of primary tumor growth” value ([7]; seven intravenous doses) of the same molecule?
A: The value was “slowed primary tumor growth”.
